Kd, IC50 and Ki data for 4 molecules are collected here from paper PMC4742067 (PLoS ONE, 2016).

Test [1] concerns the target bradykinin B1 receptor (Homo sapiens) (UniProt P46663). Put plainly: radioligand binding. The conditions noted are these: cited from earlier work.
The target in test [2] is T1, human B1R C-terminally tagged with FLAG (hB1R-FLAG) (human, UniProt P46663 1-353).
T1 construct: also called human B1R-FLAG; bradykinin B1 receptor; not shown: FLAG, C-terminal, kept
T1 sequence (looked up): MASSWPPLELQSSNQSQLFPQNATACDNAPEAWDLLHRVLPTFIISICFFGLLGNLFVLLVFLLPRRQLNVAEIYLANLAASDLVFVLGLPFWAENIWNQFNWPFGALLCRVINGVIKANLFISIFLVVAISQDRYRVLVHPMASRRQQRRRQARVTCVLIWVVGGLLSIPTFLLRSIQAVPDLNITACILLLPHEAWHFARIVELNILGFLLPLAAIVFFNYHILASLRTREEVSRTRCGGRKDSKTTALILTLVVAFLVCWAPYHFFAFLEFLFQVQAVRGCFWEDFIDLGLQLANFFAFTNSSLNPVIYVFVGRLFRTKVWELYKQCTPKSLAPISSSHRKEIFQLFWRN
Put plainly: radioligand binding; competition of unlabeled pure peptides with 1 nM [^3H]Lys-des-Arg^9-BK on intact, adherent HEK 293a cells (24-well plates) transiently expressing hB1R-FLAG; one-site competition fit (series of Fig 2 and the Lys-des-Arg^9-BK curve of Fig 7). The note with it: one partner purified.

Test [3] addresses T1, human B1R C-terminally tagged with FLAG …. Put plainly: radioligand binding; competition of dilutions of a producer-cell lysate of known EGFP-S4-P1 concentration (GFP ELISA) with 1 nM [^3H]Lys-des-Arg^9-BK (bought radioligand) on intact HEK 293a cells expressing hB1R-FLAG; Ki by the Cheng-Prusoff correction. The conditions noted are these: partners not purified.

With “Lys-des-Arg9-bradykinin (from UniProt P01042)”, the Kd in test [1] is 0.35 nM. Regarding NGNGNGNGNGKRPPGFSPL [synthetic S3-P2], in test [2], the IC50 is 663 nM.

B1: EGFP-S4-P1 (EGFP-(NG)15-Lys-des-Arg^9-BK) (ligand)
chain: NGNGNGNGNGNGNGNGNGNGNGNGNGNGNGKRPPGFSPF
notes: also called EGFP-(Asn-Gly)15-Lys-des-Arg^9-BK
In the case of B1, in test [3], the IC50 amounted to 25.5 nM and the Ki worked out at 6.6 nM.

In the case of NGNGNGNGNGKRPPGFSPF (also called (Asn-Gly)5-Lys-des-Arg^9-BK) [synthetic S3-P1], the IC50 in test [2] is 75.1 nM.
